Assay [1] has as its target yeast-displayed unmutated SARS-CoV-2 RBD (Wuhan-Hu-1) (SARS-CoV-2, UniProt P0DTC2). In words: flow cytometry on cells. Background: In flow cytometry, cells or beads pass a laser one at a time.
For assay [2], the target named is SARS-CoV-2 RBD WT (for crystallization) (SARS-CoV-2, UniProt P0DTC2). In words: crystal structure.
Assay [3] has as its target Prefusion-stabilized SARS-CoV-2 spike protein for SPR (residues 14–1211, D614G) (SARS-CoV-2 Wuhan-Hu-1 with D614G, D614G). In words: SPR. On the technique in general: In SPR one partner is held on a chip, and binding of the other changes the refractive index at the surface.

B1: S2H14 IgG1 (antibody, V domains shown)
VH: not shown
VL: NFMLTQPHSVSESPGKTVTISCTRSSGSIASNYVQWYQQRPGSSPTTVIYEDNQRPSGVPDRFSGSIDSSSNSASLTISGLKTEDEADYYCQSYDSSNQVFGGGTKLTVL
B1: the binding result in assay [1] is given as “binds”.

B2: S2X259 Fab (Fab, V domains shown)
VH: QVQLVQSGAEVKKPGSSVKVSCKASGGIFNTYTISWVRQAPGQGLEWMGRIILMSGMANYAQKIQGRVTITADKSTSTAYMELTSLRSDDTAVYYCARGFNGNYYGWGDDDAFDIWGQGTLVTVYS
VL: QTVLTQPPSVSGAPGQRVTISCTGSNSNIGAGYDVHWYQQLPGTAPKLLICGNSNRPSGVPDRFSGSKSGTSASLAITGLQAEDEADYYCQSYDSSLSGPNWVFGGGTKLTVL
For B2, in assay [2], the binding result is listed as “binds”.

B3: S2D106 Fab (Fab, V domains shown)
VH: EVQLVQSGAEVKKPGSSVKVSCKASGGPFSSSAISWVRQAPGQGLEWMGGIIPMVGTANYAQKFQGRVTITADESTSTAYMELSSLRSEDTAVYYCARDSRYCSGGSCYSVWFDPWGQGTLVTVSS
VL: not shown
In the case of B3, the dissociation constant (Kd) – broadly, the equilibrium constant for the complex coming apart – in assay [3] came out at 0.17 nM.

These data come from publication PMC9282883 (Nature, 2021).
